Test results published in patent US20180193437A1 (UNIVERSITY OF FLORIDA RESEARCH FOUNDATION, published 2018).

Molecular target: T1, rabbit IFNγ (rabbit, UniProt P30123 24-167)
T1 construct: also called rabbit IFNgamma; interferon gamma
T1 sequence (looked up): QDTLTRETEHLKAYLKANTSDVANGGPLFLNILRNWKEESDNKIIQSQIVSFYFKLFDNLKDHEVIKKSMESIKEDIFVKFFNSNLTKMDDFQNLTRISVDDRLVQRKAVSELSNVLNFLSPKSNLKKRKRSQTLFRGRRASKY
Assay: binding data, method not described

B1: M-T7 point mutation E209I (other)
chain: VRLTSYDLNTFVTWQDDGYTYNVSIKPYTTATWINVCEWASSSCNVSLALQYDLDVVSWARLTRVGKYTEYSLEPTCAVARFSPPEVQLVRTGTSVEVLVRHPVVYLRGQEVSVYGHSFCDYDFGYKTIFLFSKNKRAEYVVPGRYCDNVECRFSIDSQESVCATAVLTYDGSYRSEAGVEVCVPELAKRIVSPYIVKKSSDLEYVKRAIHNEYRLDTSSEGRRLEELYLTVASMFERLVEDVFE
notes: The mutant was made by mutagenic PCR of the His-tagged M-T7 construct; also called M-T7 (E209I); not shown: C-terminal His tag (His6x)
B1: no binding.
